{"source": "patent US11819553B2", "about": "“Glypican 3 antibodies and conjugates thereof” (Seagen Inc., priority 2018, dated 2023)", "target": "T1, hGPC3 (Homo sapiens, UniProt P51654)", "T1 construct": "endogenous in cells", "T1 sequence (P51654 25-554)": "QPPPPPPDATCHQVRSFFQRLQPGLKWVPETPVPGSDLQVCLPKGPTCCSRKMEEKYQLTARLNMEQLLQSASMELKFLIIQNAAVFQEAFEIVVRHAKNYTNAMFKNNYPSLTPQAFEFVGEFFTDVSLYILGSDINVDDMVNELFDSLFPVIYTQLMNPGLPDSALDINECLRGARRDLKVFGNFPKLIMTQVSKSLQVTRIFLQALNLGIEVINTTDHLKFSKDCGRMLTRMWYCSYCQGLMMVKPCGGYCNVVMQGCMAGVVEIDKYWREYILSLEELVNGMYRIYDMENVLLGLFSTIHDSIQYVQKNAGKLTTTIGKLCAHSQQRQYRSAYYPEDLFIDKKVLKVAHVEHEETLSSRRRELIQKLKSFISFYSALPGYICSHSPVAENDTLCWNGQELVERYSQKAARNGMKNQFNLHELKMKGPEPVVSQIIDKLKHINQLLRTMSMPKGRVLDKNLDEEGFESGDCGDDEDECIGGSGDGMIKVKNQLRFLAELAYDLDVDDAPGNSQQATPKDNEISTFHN", "experiment": "Competition binding assay on GPC3-positive cells (flow cytometry, AlexaFluor-488 labeled mGPC3-1)", "conditions": "Table 6; competition with labeled mGPC3-1 on GPC3-positive cells; read-out: hGPC3 Binding of hGPC3-1 Antibody Variants EC50", "protocol": "One hundred thousand GPC3-positive cells were transferred to 96-well plates and incubated for 1 hour on ice with 3-5 nM AlexaFluor-488 labeled mGPC3-1 and increasing concentrations (from 10 pM to 2 uM) of unlabeled humanized or murine GPC3-1 mAb. Cells were centrifuged, washed 3 times with PBS, and resuspended in 125 μL of a PBS+2% FBS solution. Fluorescence was analyzed using a flow cytometer, and the percent of saturated fluorescent signal was used to determine percent labeled GPC3-1 mAb bound. The EC50 was extrapolated by fitting the data to a sigmoidal dose-response curve with variable slope.", "data": [{"molecule": "hGPC3-1 HALA: humanized GPC3-1 antibody with heavy chain variable region vHA and light chain variable region vLA (antibody, V domains shown) VH: QVQLVQSGAEVKKPGASVKVSCKASGYTFTDYEMHWVRQAPGQGLEWIGGIDPETGGTAYNQKFKGRATLTADTSTSTAYMELRSLRSDDTAVYYCARYYSFAYWGQGTLVTVSS VL: DVVMTQSPLSLPVTLGQPASISCRSSQSIVHSNGNTYLQWFQQRPGQSPRRLIYKVSNRFSGVPDRFSGSGSGTDFTLKISRVEAEDVGVYYCFQVSHVPYTFGQGTKLEIK", "values": [{"measurement": "EC50", "value": "> 300", "unit": "nM"}]}]}
